2 substances from IntAct's records for PubMed 21920025 can be followed below.

In one assay the target is prio_human PRNP (UniProt P04156).
In the next assay the target is prio_bovin PRNP (UniProt P10279).

Take “Major prion protein (Bos taurus (Bovine)) (from UniProt P10279) L149I”: the “effect of a mutation on the interaction” value in the assay with prio_human PRNP is reported as “decreasing interaction”.
Consider “Major prion protein (Homo sapiens) (from UniProt P04156) M129V”, for which, in the assay with prio_bovin PRNP, the “effect of a mutation on the interaction” value is given as “decreasing interaction”.
